Data taken from paper PMC5554173.

Key:
[1] = spotting on 7H11 OADC plates; conditions: glycan lost
[2] = glycan lost

Protein	other: colony formation on solid medium [1]	other: invasion and growth in macrophages [2]
LprG (Rv1411c): LprG T231A (protein) parent chain: MRTPRRHCRRIAVLAAVSIAATVVAGCSSGSKPSGGPLPDAKPLVEEATAQTKALKSAHMVLTVNGKIPGLSLKTLSGDLTTNPTAATGNVKLTLGGSDIDADFVVFDGILYATLTPNQWSDFGPAADIYDPAQVLNPDTGLANVLANFADAKAEGRDTINGQNTIRISGKVSAQAVNQIAPPFNATQPVPATVWIQETGDHQLAQAQLDRGSGNSVQMTLSKWGEKVQVTKPPVS	no change	–
LprG (Rv1411c): lprG A691G (T231A) (protein) parent chain: MRTPRRHCRRIAVLAAVSIAATVVAGCSSGSKPSGGPLPDAKPLVEEATAQTKALKSAHMVLTVNGKIPGLSLKTLSGDLTTNPTAATGNVKLTLGGSDIDADFVVFDGILYATLTPNQWSDFGPAADIYDPAQVLNPDTGLANVLANFADAKAEGRDTINGQNTIRISGKVSAQAVNQIAPPFNATQPVPATVWIQETGDHQLAQAQLDRGSGNSVQMTLSKWGEKVQVTKPPVS	–	no change
